# Biological target: E. coli RNAP core with βG1249D (α2, His6-tagged βG1249D, β’, ω) (E. coli) (UniProt P0A7Z4)
# Test: cross-linking; photo-crosslinking from BpA at σ 581; σD581BpA incubated with or without AsiA 10 min at 37°C, then with core 10 min at 37°C; UV 30 min at room temperature; SDS-PAGE with Coomassie stain; crosslinked band digested with trypsin and read by MALDI-TOF; the species was seen only with AsiA present
substance,measurement,value
AsiA/σD581BpA complex (from UniProt P00579 1-613; P32267 1-90),fold less of the σD581BpA-β’ crosslinked product than with wt core,4 fold

# Source: publication PMC5027511
